In the assay the target is T1, human B7-H3 antigen, recombinant extracellular domain (ECD) (29-461) (human, UniProt Q5ZPR3 29-461).
T1 construct: range 29-461; Expressed in 293F cells as B7-H3-TEV-cFc-His fusion, cut with TEV protease and cleaned over a nickel column to give the human B7-H3 antigen; also called recombinant human B7-H3 antigen; hB7-H3
T1 sequence (looked up): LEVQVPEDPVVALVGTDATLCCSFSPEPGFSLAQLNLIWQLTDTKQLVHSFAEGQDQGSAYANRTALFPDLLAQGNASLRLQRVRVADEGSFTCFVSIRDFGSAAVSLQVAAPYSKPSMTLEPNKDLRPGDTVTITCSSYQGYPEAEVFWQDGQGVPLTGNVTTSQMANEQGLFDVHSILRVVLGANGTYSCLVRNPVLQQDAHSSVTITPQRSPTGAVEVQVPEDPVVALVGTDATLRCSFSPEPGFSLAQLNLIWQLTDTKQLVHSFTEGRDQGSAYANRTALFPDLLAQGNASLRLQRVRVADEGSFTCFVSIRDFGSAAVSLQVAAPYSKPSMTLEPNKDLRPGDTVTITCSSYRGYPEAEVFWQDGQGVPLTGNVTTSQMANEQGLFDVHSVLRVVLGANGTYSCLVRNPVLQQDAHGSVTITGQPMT
Kind of assay: ELISA, coated human B7-H3 antigen. The procedure: The binding activity of the 5D9 to B7-H3 antigen was analyzed by ELISA. Human B7-H3 antigens were coated on the 96-well plate and placed at 4° C. overnight. The antibody 5D9 and controls were diluted to 10 μg/mL, followed by 4-fold dilution gradients to generate a total of 8 different concentrations. The diluted samples and the wells coated antigen were incubated for 1h. After washing, HRP (horseradish peroxidase)-labeled goat anti-human IgG (H+L) secondary antibody was added to the plate and incubated for 1h. TMB (3,3′,5,5′-tetramethylbenzidine) solution was then added to each well after washing for chromogenesis. The absorbance was measured at OD₄₅₀ₙₘ with a microplate reader. Taking the logarithmic value of the sample concentration as the X-axis, and the absorbance OD₄₅₀ₙₘ value as the Y-axis, a dose-response curve was drawn to calculate the EC₅₀. The EC₅₀ represents the binding activity of the antibody to B7-H3 antigen. A negative control IgG group and a positive antibody Enoblituzumab control group were meanwhile set in the experiment.

The results in this text go back to patent publication US20240343809A1 (EXCELMAB, published 2024).

B1: B7-H3 antibody 5D9 (antibody, V domains shown)
VH: QVQLVQSGAEVKKPGSSVKVSCKASGGTFSNYAINWVRQAPGQGLEWMGGIIPLFGTANYAQKFQGRVTITADESTSTAYMELSSLRSDDTAVYYCARDQVVATSGVNFGMDVWGQGTTVTVSS
VL: DIQMTQEPSLTTSPGGTVTLTCRSSTGAVTTSNYANWVQEKPGQAPRGLIGGTNKRAPGTPARFSGSLIGGKAALTITGVQPEDEAIYFCALWYSNLWVFGGGTKLEIK
notes: Expressed as full antibody (heavy and light chain) in 293F cells, protein A purified, detected with anti-human IgG
B1: the binding result is “binds”.
